From paper PMC8224933, “Plasticity of seven-transmembrane-helix receptor heteromers in human vascular smooth muscle cells” (PLoS ONE, 2021)

T1: α1D-adrenoceptor (human (endogenous in hVSMCs), UniProt P25100 1-572)
T1 construct: α1D-adrenoceptor, endogenous in human vascular smooth muscle cells; also called α1D-AR; source: endogenous, hVSMCs (primary aortic smooth muscle cells, ATCC PCS-100-012), fixed cells
T1 sequence (looked up): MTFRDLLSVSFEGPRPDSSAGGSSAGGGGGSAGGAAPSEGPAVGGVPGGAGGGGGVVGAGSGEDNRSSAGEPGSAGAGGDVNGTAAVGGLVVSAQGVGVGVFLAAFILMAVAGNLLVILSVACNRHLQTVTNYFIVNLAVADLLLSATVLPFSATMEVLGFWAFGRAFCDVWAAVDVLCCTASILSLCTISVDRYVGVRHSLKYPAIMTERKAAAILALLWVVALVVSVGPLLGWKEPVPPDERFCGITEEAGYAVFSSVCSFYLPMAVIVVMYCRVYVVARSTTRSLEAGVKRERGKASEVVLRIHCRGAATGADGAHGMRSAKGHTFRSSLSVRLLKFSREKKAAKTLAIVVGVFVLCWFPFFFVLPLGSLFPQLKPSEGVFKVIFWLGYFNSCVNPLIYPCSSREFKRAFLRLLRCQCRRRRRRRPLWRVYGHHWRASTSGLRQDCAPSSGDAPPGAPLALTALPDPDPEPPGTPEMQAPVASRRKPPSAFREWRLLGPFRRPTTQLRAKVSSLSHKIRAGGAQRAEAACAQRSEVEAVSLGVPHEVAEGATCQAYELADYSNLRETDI

B1: α1A-adrenoceptor (receptor, human (endogenous in hVSMCs), UniProt P35348 1-466, looked up)
chain: MVFLSGNASDSSNCTQPPAPVNISKAILLGVILGGLILFGVLGNILVILSVACHRHLHSVTHYYIVNLAVADLLLTSTVLPFSAIFEVLGYWAFGRVFCNIWAAVDVLCCTASIMGLCIISIDRYIGVSYPLRYPTIVTQRRGLMALLCVWALSLVISIGPLFGWRQPAPEDETICQINEEPGYVLFSALGSFYLPLAIILVMYCRVYVVAKRESRGLKSGLKTDKSDSEQVTLRIHRKNAPAGGSGMASAKTKTHFSVRLLKFSREKKAAKTLGIVVGCFVLCWLPFFLVMPIGSFFPDFKPSETVFKIVFWLGYLNSCINPIIYPCSSQEFKKAFQNVLRIQCLCRKQSSKHALGYTLHPPSQAVEGQHKDMVRIPVGSRETFYRISKTDGVCEWKFFSSMPRGSARITVSKDQSSCTTARVRSKSFLQVCCCVGPSTPSLDKNHQVPTIKVHTISLSENGEEV
notes: α1A-adrenoceptor, endogenous in human vascular smooth muscle cells; also called α1A-AR; source: endogenous, hVSMCs (primary aortic smooth muscle cells, ATCC PCS-100-012), fixed cells
B2: chemokine (C-X-C motif) receptor 4 (receptor, human (endogenous in hVSMCs), UniProt P61073 1-352, looked up)
chain: MEGISIYTSDNYTEEMGSGDYDSMKEPCFREENANFNKIFLPTIYSIIFLTGIVGNGLVILVMGYQKKLRSMTDKYRLHLSVADLLFVITLPFWAVDAVANWYFGNFLCKAVHVIYTVNLYSSVLILAFISLDRYLAIVHATNSQRPRKLLAEKVVYVGVWIPALLLTIPDFIFANVSEADDRYICDRFYPNDLWVVVFQFQHIMVGLILPGIVILSCYCIIISKLSHSKGHQKRKALKTTVILILAFFACWLPYYIGISIDSFILLEIIKQGCEFENTVHKWISITEALAFFHCCLNPILYAFLGAKFKTSAQHALTSVSRGSSLKILSKGKRGGHSSVSTESESSSFHSS
notes: chemokine (C-X-C motif) receptor 4 (CXCR4), endogenous in human vascular smooth muscle cells; also called CXCR4; source: endogenous, hVSMCs (primary aortic smooth muscle cells, ATCC PCS-100-012), fixed cells
B3: α1B-adrenoceptor (receptor, human (endogenous in hVSMCs), UniProt P35368 1-520, looked up)
chain: MNPDLDTGHNTSAPAHWGELKNANFTGPNQTSSNSTLPQLDITRAISVGLVLGAFILFAIVGNILVILSVACNRHLRTPTNYFIVNLAMADLLLSFTVLPFSAALEVLGYWVLGRIFCDIWAAVDVLCCTASILSLCAISIDRYIGVRYSLQYPTLVTRRKAILALLSVWVLSTVISIGPLLGWKEPAPNDDKECGVTEEPFYALFSSLGSFYIPLAVILVMYCRVYIVAKRTTKNLEAGVMKEMSNSKELTLRIHSKNFHEDTLSSTKAKGHNPRSSIAVKLFKFSREKKAAKTLGIVVGMFILCWLPFFIALPLGSLFSTLKPPDAVFKVVFWLGYFNSCLNPIIYPCSSKEFKRAFVRILGCQCRGRGRRRRRRRRRLGGCAYTYRPWTRGGSLERSQSRKDSLDDSGSCLSGSQRTLPSASPSPGYLGRGAPPPVELCAFPEWKAPGALLSLPAPEPPGRRGRHDSGPLFTFKLLTEPESPGTDGGASNGGCEAAADVANGQPGFKSNMPLAPGQF
notes: α1B-adrenoceptor, endogenous in human vascular smooth muscle cells; also called α1B-AR; source: endogenous, hVSMCs (primary aortic smooth muscle cells, ATCC PCS-100-012), fixed cells

Experiments:
Assay in all cases: proximity ligation; Duolink II PLA on hVSMCs fixed with 4% paraformaldehyde; two primary antibodies from differing species (1:500, 37°C, 105 min); control: omission of one primary antibody; PLA signals per cell counted; cells untreated or incubated 72 h with non-targeting, CXCR4, ACKR3 or AVPR1A siRNA
Details in all cases: partners not purified
[1] = biological target: B3
[2] = biological target: B1
[3] = biological target: T1, α1D-adrenoceptor

Binder | PLA signals after AVPR1A siRNA, % of NT siRNA [1] [%] | PLA signals after AVPR1A siRNA, % of NT siRNA [2] [%] | PLA signals after AVPR1A siRNA, % of NT siRNA [3] [%]
B1 | 101 |  | 
B2 | 72 | 91 | 
B3 |  |  | 141
